Here are results for two molecules from patent US20090214574A1 (AFFIMED, published 2009).

The target in assay [1] is T1, human CD16A-Fc^48R/158V fusion protein (human, UniProt P08637 17-208, limits assumed).
T1 construct: Secreted soluble fusion made in HEK-293 cells; also called CD16-Fc; CD16A Fc-fusion protein; not shown: Fc portion of human IgG1
The experiment in a line: SPR, steady state analysis (column Keq). How it is done:
(§1) The affinity constants (KD values) of the scFv were determined by SPR using the BIAcore 2000 biosensor system (Amersham-Pharmacia). The CD16A-Fc fusion protein and BSA used as a negative control were immobilized on the carboxymethyldextran-coated sensor chip CM5 using conventional NHS/EDC chemistry for the amine coupling procedure (BIAcore). Purified scFvs were diluted in HBS-EP buffer (BIAcore, Uppsala, Sweden). Binding data was generated by passing varying concentrations of the scFv antibodies (100 nM, 200 nM, 400 nM, 800 nM and 1600 nM) over the immobilized antigen. […] All SPR measurements were performed at a constant flow rate of 20 μL/min in HBS-EP buffer at 25° C. Each injected sample (100 μl) was in contact with antigen for 5 minutes. The dissociation was followed for 30 minutes. After each cycle, the surface of the sensor chip was flushed with HBS-EP buffer. Signals from the control channel coated with BSA were automatically subtracted. Kinetic constants were calculated according to the 1/1 Langmuir binding model using the BIAevaluation version 3.0 software (BIAcore).
In general terms: SPR reads the build-up and loss of mass on a sensor chip optically.

The target of assay [2] is T2, NKp46 extracellular domain fused to zeta chain, on transiently transfected HEK-293 cells (293/NKp46) (human, UniProt O76036 22-258; P20963 31-164).
T2 construct: extracellular domain;domain: transmembrane and cytoplasmic domain; On the cell surface; also called NKp46-transfectants; pcDNA3-NKp46-zeta
T2 sequence (O76036 other isoform, or with tags, fused parts or gaps limits assumed): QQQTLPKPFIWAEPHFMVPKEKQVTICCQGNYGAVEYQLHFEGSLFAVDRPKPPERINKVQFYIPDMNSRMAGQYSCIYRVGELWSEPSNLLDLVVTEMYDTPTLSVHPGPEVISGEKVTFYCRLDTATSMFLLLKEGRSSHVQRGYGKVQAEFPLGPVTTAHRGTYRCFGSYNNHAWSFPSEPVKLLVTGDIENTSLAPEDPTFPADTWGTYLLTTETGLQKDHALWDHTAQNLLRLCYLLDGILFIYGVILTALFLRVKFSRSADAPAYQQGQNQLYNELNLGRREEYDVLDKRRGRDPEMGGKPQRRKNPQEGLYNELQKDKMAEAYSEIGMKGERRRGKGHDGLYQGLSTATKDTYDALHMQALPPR
The experiment in a line: flow cytometry on 293/NKp46 cells; scFv, anti-hexa His MAb 13/45/31-2, FITC goat anti-mouse IgG; MFI minus secondary reagents alone. How it is done:
(§2) The mean fluorescence intensities obtained from flow cytometric analysis were corrected by subtracting the fluorescence values from cell stainings with the secondary reagents alone, and plotted in the diagram.
(§3) For flow cytometric analysis, the following cell lines were used: BW and BW/CD16A transfectants were cultured as described previously. […] The transient transfections were performed using the calcium phosphate method as described in Example 1 and were used for flow cytometric staining and analysis two days after transient transfection. Flow cytometric staining and analysis was performed as essentially described before.
For orientation: In flow cytometry, cells or beads pass a laser one at a time.

For another assay, the target named is T3, Streptavidin (UniProt P22629 37-163, limits assumed).
T3 construct: also called streptavidin alone
T3 sequence (P22629 37-163 limits assumed): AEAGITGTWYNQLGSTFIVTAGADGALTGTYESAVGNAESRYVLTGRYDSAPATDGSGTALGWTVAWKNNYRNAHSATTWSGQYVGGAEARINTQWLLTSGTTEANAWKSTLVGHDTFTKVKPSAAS
The experiment in a line: ELISA on coated streptavidin; periplasmic extract, anti-Penta His-HRP. Background: ELISA stands for enzyme-linked immunosorbent assay.

In assay [3] the target is T4, NKp46-Fc (UniProt O76036 22-258, limits assumed).
T4 construct: Negative control protein; also called NKp46-Fc control protein; not shown: Fc part, not described
T4 sequence (O76036 22-258 limits assumed): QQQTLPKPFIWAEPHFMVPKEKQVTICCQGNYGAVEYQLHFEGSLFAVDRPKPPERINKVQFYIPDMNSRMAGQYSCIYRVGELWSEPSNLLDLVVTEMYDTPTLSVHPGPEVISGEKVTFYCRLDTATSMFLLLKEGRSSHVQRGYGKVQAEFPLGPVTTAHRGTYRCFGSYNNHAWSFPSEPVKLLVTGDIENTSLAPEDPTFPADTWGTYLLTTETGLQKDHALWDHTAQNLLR
The experiment in a line: Western blot on NKp46-Fc. How it is done: For further characterization all of the anti-CD16A scFv were tested for binding in Western Blot on recombinant CD16A-Fc and NKp46-Fc.
The proteins were transferred on a nitrocellulose membrane by electroblotting. After staining with Ponceau S, the membrane was cut into strips of 5 mm width. Each nitrocellulose strip was individually incubated with scFv (4 μg/ml) in PBS, 0.1% tween, 2% skimmed milk. Detection was carried out with the anti-Penta His HRP-conjugate (1 μg/mL) using diaminobenzidine (DAB) as a peroxidase substrate. […] As an additional positive control, a goat anti-human IgG HRP-conjugate (0.16 μg/mL) was used for detection of the Fc portion of the fusion proteins.

Assay [4] addresses T5, commercially available recombinant CD16B (Allele NA-2; BSA free; RD Systems) (UniProt O75015 17-200, limits assumed).
T5 construct: also called recombinant CD16B-Fc
The assay can be described thus: ELISA, recombinant CD16B coated at 80 nM. The protocol:
(§4) FIG. 3: ELISA on recombinant CD16A-Fc and CD16B. Recombinant CD16A-Fc and CD16B proteins were coated at 80 nM in 0.1 M NaHCO₃, pH 8.8. Wells were blocked with PBS, 2% skimmed milk. The binding of the scFv to the recombinant proteins and to gp34-Fc (negative control) was detected using an anti-c-Myc-HRP conjugate (10 μg/ml). […] Coated recombinant CD16B was directly detected by staining with an anti-His-HRP (1 μg/mL) and coating of the Fc-Fusion proteins was tested by an anti-human IgG-HRP conjugate (0.5 μg/mL). As HRP-substrate, 50 μL of TMB were used. After termination of the reaction with 50 μL 0.5 M H₂SO₄, absorbance was measured at 450 nm.
(§5) In order to generate further supporting data concerning the CD16A specificity of the scFvs, an ELISA was performed using the CD16A-Fc fusion protein (Example 1) and commercially available recombinant CD16B-Fc (Allele NA-2; BSA free; RD Systems). A gp34-Fc fusion protein was used as a negative control. The recombinant proteins were coated overnight at a concentration of 80 nM in 100 mM NaHCO₃ at pH 8.8.
(§6) Detection of scFv bound to the recombinant proteins was carried out by using an anti-c-myc-HRP conjugate (10 μg/ml). […] Binding to the recombinant CD16B was tested by directly staining with anti-His-HRP (1 μg/mL) and binding to the Fc-Fusion proteins was tested by an anti-human IgG-HRP conjugate (0.15 μg/mL).

Assay [5] concerns the target T6, native CD16B on human polymorphonuclear cells (neutrophilic granulocytes) (human, UniProt O75015 17-200).
T6 construct: whole, on cells; also called PMN; CD16B-positive granulocytes
The experiment in a line: flow cytometry on freshly isolated PMN; scFv, anti-(His)6 MAb, FITC goat anti-mouse IgG; MFI minus secondary reagents alone. How it is done: Polymorphonuclear cells (PMN) and natural killer (NK) cells were isolated from peripheral blood from a healthy donor and used for flow cytometric staining and analysis. […] All scFv were used at a concentration of 50 μg/mL and were detected with 10 μg/mL anti-(His)₆ followed by 15 μg/mL FITC-conjugated goat anti-mouse IgG. The mean fluorescence intensities obtained from flow cytometric analysis were corrected by subtracting the fluorescence values from cell stainings with the secondary reagents alone and were plotted in the diagram.
Enrichment of NK cells was performed by negative selection as described above.

Assay [6] concerns the target T1, human CD16A-Fc^48R/158V fusion protein. The experiment in a line: SPR, BIAcore 2000, CD16A-Fc immobilized on CM5, koff/kon. The protocol:
as §1

Assay [7] addresses T7, human CD16B (NA-2 allele) on stably transfected HEK-293 cells (293/CD16B) (human, UniProt O75015 17-200).
T7 construct: whole, on cells
The assay can be described thus: flow cytometry on 293/CD16B cells; scFv, anti-hexa His MAb 13/45/31-2, FITC goat anti-mouse IgG; MFI minus secondary reagents alone. The protocol: as §2, §3

For assay [8], the target named is T1, human CD16A-Fc^48R/158V fusion protein. The experiment in a line: SPR, BIAcore 2000, CD16A-Fc immobilized on CM5, 1:1 Langmuir. How it is done: as §1
The target is the same in assay [9]. The experiment in a line: SPR, kinetic and steady state analysis. The protocol: as §1
Assay [10] shares this target. The experiment in a line: surface plasmon resonance.
Assay [11] has as its target T5, commercially available recombinant …. The assay can be described thus: ELISA on recombinant CD16B coated at 80 nM; scFv detected with anti-c-Myc-HRP (10 µg/ml). How it is done:
as §4, §5, §6

Assay [12] concerns the target T1, human CD16A-Fc^48R/158V fusion protein. The assay can be described thus: SPR, BIAcore 2000, antigen immobilized, koff/kon. How it is done:
as §1

Assay [13] shares this target. The experiment in a line: SPR, BIAcore 2000, antigen immobilized. The protocol: as §1
Another assay has as its target T8, CD16B-Fc^NA1 (human, UniProt O75015 17-200).
T8 construct: extracellular domain; not shown: Fc region carried by the pSEC plasmid
The experiment in a line: ELISA on 200 ng coated antigen; scFv, anti-His-HRP (1 µg/ml). The protocol: (§7) FIG. 7: ELISA on different CD16 isoforms. […] An anti-NKp46 scFv used as a primary antibody acted as a negative control.
(§8) Detection of scFv bound to the recombinant proteins was carried out using an anti-His-HRP conjugate (1 μg/ml).

The target of the next assay is T9, CD16B-Fc^SH (human, UniProt O75015 17-200).
T9 construct: extracellular domain; not shown: Fc region carried by the pSEC plasmid
T9 sequence (O75015 17-200 N65S/A78D): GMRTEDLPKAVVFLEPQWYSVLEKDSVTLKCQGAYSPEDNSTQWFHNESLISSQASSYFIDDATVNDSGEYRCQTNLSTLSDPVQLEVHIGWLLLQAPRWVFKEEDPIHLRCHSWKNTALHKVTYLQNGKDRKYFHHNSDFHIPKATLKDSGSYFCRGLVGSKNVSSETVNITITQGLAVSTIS
The description is as above. How it is done: as §7, §8

The target of assay [14] is T4, NKp46-Fc. The description is as above. How it is done:
as §7, §8

The target in a further assay is T10, CD16B-Fc^NA2 (human, UniProt O75015 17-200).
T10 construct: extracellular domain; not shown: Fc region carried by the pSEC plasmid
T10 sequence (O75015 17-200 N65S): as the sequence (O75015 17-200 N65S/A78D) above, with D62A counted along it
The assay is described as above. How it is done: as §7, §8

Where only a bound is given, the exact number is not on record here.

T1 sequence (P08637 17-208 L66R/F176V limits assumed): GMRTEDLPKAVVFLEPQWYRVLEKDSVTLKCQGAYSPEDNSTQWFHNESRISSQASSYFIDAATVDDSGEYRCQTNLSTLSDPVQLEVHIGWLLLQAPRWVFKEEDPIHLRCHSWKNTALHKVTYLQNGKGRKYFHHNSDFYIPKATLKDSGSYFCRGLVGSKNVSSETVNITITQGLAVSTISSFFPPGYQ
T6 sequence (O75015 17-200): as the sequence (O75015 17-200 N65S/A78D) above, with S49N, D62A counted along it
T7 sequence (O75015 17-200 N65S): as the sequence (O75015 17-200 N65S/A78D) above, with D62A counted along it
T5 sequence (O75015 17-200 N65S limits assumed): as the sequence (O75015 17-200 N65S/A78D) above, with D62A counted along it
T8 sequence (O75015 other isoform, or with tags, fused parts or gaps): as the sequence (O75015 17-200 N65S/A78D) above, with S20R, S49N, D62A, N66D, I90V counted along it

B1: human anti-CD16A scFv 50NI (scFv)
scFv: EVQLVQSGAEVKKPGESLKVSCKASGYTFTSYYMHWVRQAPGQGLEWMGIINPSGGSTSYAQKFQGRVTMTRDTSTSTVYMELSSLRSEDTAVYYCARGSAYYYDFADYWGQGTLVTVSSGSASAPTLKLEEGEFSEARVSYELMQPPSVSVSSGQTASIPCSGDKLEEKYVSWYQQRPGQSPVLVIYQDNKRPSGIPERFSGSNSGNTATLTISGTQAMDEADYYCQVWDNYSVLFGGGTKLTVLGQPKAAPSVTLFPPSAAAGSEQKLISEEDLNSHHHHHH
notes: also called clone 50NI; parental clone
Take B1: the Kd in [1] came out at 2560 nM; in [6], 1230 nM. The binding result in assay [2] is reported as “no binding (tested: 50 µg/mL)”; in the assay with Streptavidin, “no binding”; in the assay with NKp46-Fc [3] it was “no binding (tested: 4 µg/ml)”; in [4], “no binding”; in assay [5], “no binding (tested: 50 µg/mL)”; in assay [7], “no binding (tested: 50 µg/mL)”. Besides, in [8], the koff stood at 0.0217 s⁻¹. In addition, in [8], the kon came out at 17600 M⁻¹ s⁻¹.

B2: affinity matured anti-CD16A scFv 4-LS21 (scFv)
scFv: EVQLVQSGAEVKKPGESLKVSCKASGYTFTSYYMHWVRQAPGQGLEWMGIINPSGGSTSYAQKFQGRVTMTRDTSTSTVYMELSSLRSEDTAVYYCARGSAYYYDFADYWGQGTLVTVSSGSASAPTLKLEEGEFSEARVQPVLTQPSSVSVAPGQTATISCGGHNIGSKNVHWYQQRPGQSPVLVIYQDNKRPSGIPERFSGSNSGNTATLTISGTQAMDEADYYCQVWDNYSVLFGGGTKLTVLGQPKAAPSVTLFPPSAAAGSEQKLISEEDLNSHHHHHH
notes: IMAC-purified from pSKK2
Regarding B2, in assay [9], the “fold improvement of affinity over parental clone 50NI” value was over 20 fold. Also, the Kd in assay [10] was about 50 nM; in assay [1], 203 nM; in [12] it was 61.7 nM; in assay [6], 113 nM. The binding result in [11] is on record as “no binding (tested: not given)”; in [2] it was “no binding (tested: 50 µg/mL)”; in [5], “no binding (tested: 50 µg/mL)”; with CD16B-Fc^NA1, “no binding (tested: 4 µg/ml)”; in the assay with CD16B-Fc^SH it was “no binding (tested: 4 µg/ml)”; with NKp46-Fc [14], “no binding (tested: 4 µg/ml)”. Besides, the values for the binding result (with CD16B-Fc^NA2; in [7]) were “no binding (tested: 4 µg/ml)” and “no binding (tested: 50 µg/mL)”, respectively. Further, the off-rate (koff) in assay [13] stood at 0.00342 s⁻¹; in [8] it was 0.0063 s⁻¹. In addition, the kon in assay [13] is 55400 M⁻¹ s⁻¹; in assay [8], 56000 M⁻¹ s⁻¹.

As usually defined, the Kd is the equilibrium constant for the complex coming apart. The koff is the rate constant with which the complex falls apart. Read a high koff as fast dissociation. Broadly, the kon is the second-order rate constant of association. Read a low kon as slower complex formation.
